Reference: article PMC5750471

B1: TREM2 (triggering receptor expressed on myeloid cells 2) with a Myc-tag at the C terminus, wild type [human] / presenilin 1 (PS1), wild type [not stated] (parent)
chain 1: HNTTVFQGVAGQSLQVSCPYDSMKHWGRRKAWCRQLGEKGPCQRVVSTHNLWLLSFLRRWNGSTAITDDTLGGTLTITLRNLQPHDAGLYQCQSLHGSEADTLRKVLVEVLADPLDHRDAGDLWFPGESESFEDAHVEHSISRSLLEGEIPFPPTSILLLLACIFLIKILAASALWAAAWHGQKPGTHPPSELDCGHDPGYQLQTLPGLRDT
chain 2: not shown

Variants of: B1
Experiment: co-immunoprecipitation with PS1 antibody Ab14, immunoblot band quantification
Conditions: with presenilin 1 (PS1), HEK293 cells stably expressing Myc-tagged TREM2, transfected with PS1, n=3, read off a plot

| Variant | ratio to parent (arbitrary unit) |
| --- | --- |
| chain 1 R29H | 1.2 |
| chain 1 T78K | 1.2 |
| chain 1 T48M | 0.68 |
